Assay results published in the RNAGym collection of RNA variant scans (doi:10.7554/elife.80360).

B1: Hammerhead Ribozyme (parent)
chain: ACCGGAUGUGCUUUCCGGUCUGAUGAGUCCGUGAGGACGAAACAG

Variants of: B1
Assay: self-cleavage, relative activity (ratio to wild type); higher = more cleavage; co-transcriptional

Variant | self-cleavage
U7C G27A | 0.814
C3A C20U | 0.319
G10U A23G | 0.388
G31U A41G | 0.364
U14C C15A | 0.72
U7C U28A | 0.504
U14C G39U | 0.294
A26C A41C | 0.369
U12A U32G | 0.878
G10U C30A | 0.844
U12C G39C | 0.327
G39U A44U | 0.372
A1G A34U | 1.47
A1G A34G | 1.5
C20U U28A | 0.621
G17C C30U | 0.545
G31C G36C | 0.453
C2U G36U | 0.488
C11A C15G | 1.15
G25C G27A | 0.285
C20A G36A | 0.33
G4A G39C | 0.319
A42U C43G | 0.255
C3A A6U | 0.371

Variant | self-cleavage
G18C A34G | 0.422
G22U A34C | 0.267
G18C C43A | 0.327
G35U A37G | 0.679
U21C A26G | 0.295
G22C A26C | 0.3
C11G G31C | 0.83
G4U A44U | 0.33
G4U A44C | 0.401
G10C U14C | 1.28
U13C C15G | 0.728
U9G G36A | 0.57
G4C G25C | 0.289
U7A U12A | 1.55
C3G U9G | 0.407
A6C G10A | 0.68
A6C G25C | 0.24
G39U G45U | 0.445
C30G G31A | 0.806
U14A A44U | 0.417
A37C A42G | 0.235
A37C A42C | 0.241
C2U A26U | 0.89
A1U C43A | 0.347

Variant | self-cleavage
A26U G31A | 0.738
C15G U32C | 0.804
U19G G33A | 0.551
U14G A26U | 0.569
G10U G22C | 0.351
U32A G36C | 0.37
G22A U28A | 0.326
G25C G31U | 0.358
U7C G8C | 0.961
C11A | 1.12
G5A C15G | 1.53
A6G G45U | 0.597
U7G U21G | 0.426
G27A C38G | 0.623
U13A U14G | 1.16
U32C A37U | 0.752
G10A G35A | 0.853
G5C C38U | 0.479
C2G C38A | 0.336
U28A C43U | 0.381
G25C G39A | 0.33
A6G C30G | 0.594
A1C G25C | 0.313
G33U A41G | 0.354

Variant | self-cleavage
U9A C30U | 1.07
A23G C43A | 0.304
A23C G27A | 0.341
A6C U13G | 0.673
A6U U19G | 0.395
A6U U19C | 0.47
U28C A42C | 0.338
U12G U24G | 0.795
C11U A40U | 0.296
G5A A23G | 0.385
U14A U21G | 0.595
U9C | 1.02
C3U G10C | 1.05
U12A U19C | 0.366
G4U C16G | 1.09
C3A C38A | 0.315
G18C A23C | 0.298
A23C G31U | 0.647
G10C G18C | 0.614
A41U G45U | 0.359
A41C A42U | 0.235
U19G C29G | 0.307
A6U A42U | 0.241
G10A G45U | 0.767

Variant | self-cleavage
U13C A34U | 1.12
U13G A41U | 0.272
U14G G17U | 0.485
C3U G25A | 0.368
G36U A44C | 0.339
U19A G33A | 0.356
U21C A37C | 0.907
G17A A42C | 0.341
U12A C16U | 1.1
U21C A44C | 0.454
G35C A37C | 0.504
C15G C16U | 0.58
U7A C16G | 0.851
A23U | 0.425
G10U U28C | 1.18
G5U U9A | 0.723
U14G C30G | 0.721
U32G G36A | 0.556
G31A G35C | 1.01
G18A A37U | 0.55
U7C G33U | 0.755
C3G G35A | 0.292
G36C G39A | 0.29
C29U A42U | 0.367

Variant | self-cleavage
U9A U14C | 0.73
G8C G22U | 0.341
U19C A26G | 0.242
G18A A40C | 0.308
G4C C29U | 0.567
G35A C38U | 0.587
U21C G45U | 0.553
U19A U21A | 0.292
U7A G22C | 0.309
C29A A41C | 0.355
G4U C11A | 0.502
G17U C30G | 0.59
G35C A41G | 0.329
C16G C43G | 0.265
G27C A42G | 0.267
G27C A42C | 0.272
A6U C20A | 0.373
G5U G8C | 0.942
C2A C11U | 0.431
A1C U7A | 0.29
A1C U7C | 0.38
U7G A37G | 0.928
A1G G31A | 1.79
U9A G10C | 1

Variant | self-cleavage
C3G U19A | 0.265
C3U G8A | 1.25
U14A G27C | 0.661
U7G G45C | 0.441
U9C C15A | 0.956
G4A C29A | 0.374
C20A G33A | 0.651
C20A G33U | 0.548
C2G G25U | 0.272
G27C C38G | 0.426
G5U G39A | 0.339
G35A A44G | 0.837
C16U U28C | 0.874
A6C G18A | 0.311
U7A G8C | 1.21
U21G A23U | 0.448
A23U G45U | 0.461
G31A A37C | 1.17
U32C G35C | 0.647
G33C A44G | 1.13
C2A U14A | 0.509
G10C C16A | 0.995
C20G A41G | 0.332
G27C G36U | 0.371

Variant | self-cleavage
C2G C3U | 0.36
C30U A34C | 1.03
A1G C3G | 0.586
A26C C30G | 0.33
U14C C38G | 0.489
G8C A42C | 0.363
C2U U32G | 1.04
A26G C38U | 0.337
C16A A40C | 0.402
U9G U21C | 0.414
U21C U24C | 0.909
U14G C20G | 0.297
C11G A34C | 0.893
C11A G36U | 0.762
G8C G17C | 0.397
U7C G35C | 0.849
U9G U24A | 0.928
A6C A34C | 0.745
C11G C43U | 0.483
C15G U21A | 0.424
U13C G25A | 0.395
U13C G25C | 0.264
U9C U13C | 0.843
C3G C11A | 0.702

Variant | self-cleavage
A1C C2G | 0.524
A1C U12C | 0.373
A26U G36A | 0.458
G27U G45C | 0.365
U12C U32C | 1.05
G31U C43U | 0.637
C16A C20U | 0.567
U19C A44G | 0.751
G8A G36U | 0.5
U28G A40U | 0.323
G35C | 0.791
G4A U21A | 0.312
G4U G25C | 0.339
A1C | 0.466
A34U G39U | 0.356
G10C | 1.05
G25U A26U | 0.343
U14A A41C | 0.302
U7A G31C | 1.28
G5C U19C | 0.269
G35A G36U | 0.427
C2A G36U | 0.341
A41G C43U | 0.366
A44U G45U | 1.91

Variant | self-cleavage
A23C C43G | 0.274
U9A C29A | 0.49
G25A G33A | 0.379
C15A A37G | 0.895
C2A U32C | 0.632
C20A G31C | 0.412
A26G A42C | 0.231
A26G G36U | 0.412
G5C C20U | 0.358
G22U U32C | 0.272
G18A U21A | 0.401
C11A U24C | 1.13
U7C U12A | 1.42
G18A C30U | 0.783
G18A C30A | 0.607
C16U A44C | 0.586
C20A A42G | 0.341
C38U G39U | 0.3
U24C C30A | 0.904
G17C G35A | 0.535
G5A C30G | 0.597
A6C C20G | 0.335
A6C C20U | 0.371
C20U A34C | 0.369

Variant | self-cleavage
U32C G45U | 0.635
G4U G33C | 0.416
U14A U32G | 0.989
U12G G17U | 0.943
U24C G39U | 0.333
U28G A37U | 0.843
G8U G33C | 0.57
U12A G31A | 0.978
G8U U9C | 1
G8U U9G | 0.751
A41U A42U | 0.244
G5U G45A | 0.431
U12A C30U | 1.07
C3G A6G | 0.294
G39A A40G | 0.383
C30A C38G | 0.48
A1G C29U | 1.52
C2U C38A | 0.854
U7C A37U | 0.621
C29U G35U | 0.744
C2G A40G | 0.266
G25C G36A | 0.305
G4U U32C | 0.487
G10A A42C | 0.406

Variant | self-cleavage
A6G G10U | 1.1
A6C C38U | 0.67
U13A U24A | 1.09
U21G | 0.706
C3U C43G | 0.385
G27A C43G | 0.415
U19C A34G | 0.478
C30A G45C | 0.454
A6U G22C | 0.354
A23G A34G | 0.35
U12G U21A | 0.455
C3A G39A | 0.277
G10U A41U | 0.358
U12C G27A | 0.605
U12A G22A | 0.261
A6U C11A | 0.831
U9C C29U | 0.831
U12G U19G | 0.509
A6C C11A | 0.669
U9C A41U | 0.34
G5C C16G | 0.716
A34U A40C | 0.404
G8C C43G | 0.403
G8U G22U | 0.348

Variant | self-cleavage
U7G U19A | 0.398
C3U U21G | 0.558
C3U U21C | 0.731
U14G C43U | 0.547
G4U G18U | 0.323
G4U G18C | 0.275
G10U U19C | 0.665
C11U U24C | 1.08
C11U U24G | 1.02
G17U G27C | 0.486
U24G G25A | 0.494
U19A U24A | 0.465
C3G G25A | 0.296
A42C | 0.373
G10A A23C | 0.375
A26G C30G | 0.245
U14A G31C | 1.01
C11U G36C | 0.499
U19C A37C | 0.668
U19C A37U | 0.437
C16G G22U | 0.334
U19C A40U | 0.272
G31U G39C | 0.474
A26C G27A | 0.313

Variant | self-cleavage
C29A A37U | 0.703
C20U C30A | 0.464
G31A A34G | 0.846
G27U A44G | 0.69
U14A C43A | 0.333
C43G A44G | 0.934
C30G G35C | 1.03
C29A U32A | 0.643
G17C G45U | 0.394
U12C C30A | 0.955
A6C C29U | 0.695
G33A A41C | 0.465
C11A G33A | 1.22
C2A A40U | 0.35
U32G G45C | 0.712
U9G G33C | 0.78
U9G G33U | 0.788
G5U A40U | 0.319
A6C G39U | 0.271
G18U A34C | 0.407
C38A A41U | 0.336
G31A C38U | 0.919
